Measurements taken from patent US20130209454A1 (CALIFORNIA INSTITUTE OF TECHNOLOGY, published 2013).

Assays:
Experiment in all cases: cell-based or functional assay
[1] = target: HIV-1 Env of strain Du156.12 (HIV-1)
[2] = target: HIV-1 Env of strain ZM249M.PL1 (HIV-1)
[3] = target: HIV-1 Env of strain REJO4541.67 (HIV-1)
[4] = target: HIV-1 Env of strain Q769.d22 (HIV-1)
[5] = target: HIV-1 Env of strain WEAU_d15_410_787 (HIV-1)
[6] = target: HIV-1 Env of strain CAP45.2.00.G3 (HIV-1)
[7] = target: HIV-1 Env of strain Du422.1 (HIV-1)
[8] = target: HIV-1 Env of strain T278-50 (HIV-1)
[9] = target: HIV-1 Env of strain 3016.v5.c45 (HIV-1)
[10] = target: HIV-1 Env of strain ZM247v1(Rev-) (HIV-1)
[11] = target: HIV-1 Env of strain C1080.c03 (HIV-1)
[12] = target: HIV-1 Env of strain THRO4156.18 (HIV-1)
[13] = target: HIV-1 Env of strain 231966.c02 (HIV-1)
[14] = target: HIV-1 Env of strain CNE58 (HIV-1)
[15] = target: HIV-1 Env of strain X2131_C1_B5 (HIV-1)
[16] = target: HIV-1 Env of strain 928-28 (HIV-1)
[17] = target: HIV-1 Env of strain Ce703010054_2A2 (HIV-1)
[18] = target: HIV-1 Env of strain Ce2010_F5 (HIV-1)
[19] = target: HIV-1 Env of strain ZM109F.PB4 (HIV-1)
[20] = target: HIV-1 Env of strain P1981_C5_3 (HIV-1)
[21] = target: HIV-1 Env of strain P0402_c2_11 (HIV-1)
[22] = target: HIV-1 Env of strain SC422661.8 (HIV-1)
[23] = target: HIV-1 Env of strain WITO4160.33 (HIV-1)
[24] = target: HIV-1 Env of strain Ce2060_G9 (HIV-1)
[25] = target: HIV-1 Env of strain Ce0682_E4 (HIV-1)

B1: NIH45-46 IgG (antibody, V domains shown)
VH: QVRLSQSGGQMKKPGESMRLSCRASGYEFLNCPINWIRLAPGRRPEWMGWLKPRGGAVNYARKFQGRVTMTRDVYSDTAFLELRSLTSDDTAVYFCTRGKYCTARDYYNWDFEHWGRGAPVTVSS
VL: EIVLTQSPATLSLSPGETAIISCRTSQSGSLAWYQQRPGQAPRLVIYSGSTRAAGIPDRFSGSRWGADYNLSISNLESGDFGVYYCQQYEFFGQGTKVQVDI
Q: What does the source list for B1?
A: neutralization IC50 [1]: 0.02 mg/L; neutralization IC50 [2]: 0.017 mg/L; neutralization IC50 [3]: 0.014 mg/L; neutralization IC50 [4]: 0.009 mg/L; neutralization IC50 [5]: 0.005 mg/L; neutralization IC50 [6]: > 50 mg/L; neutralization IC50 [7]: > 50 mg/L; neutralization IC50 [8]: > 50 mg/L; neutralization IC50 [9]: > 50 mg/L; neutralization IC50 [10]: 2.94 mg/L; neutralization IC50 [11]: 2.48 mg/L; neutralization IC50 [12]: 1.91 mg/L; neutralization IC50 [13]: 1.64 mg/L; neutralization IC50 [14]: 0.43 mg/L; neutralization IC50 [15]: 0.23 mg/L; neutralization IC50 [16]: 0.23 mg/L; neutralization IC50 [17]: 0.159 mg/L; neutralization IC50 [18]: 0.101 mg/L; neutralization IC50 [19]: 0.095 mg/L; neutralization IC50 [20]: 0.08 mg/L; neutralization IC50 [21]: 0.073 mg/L; neutralization IC50 [22]: 0.06 mg/L; neutralization IC50 [23]: 0.06 mg/L; neutralization IC50 [24]: 0.058 mg/L; neutralization IC50 [25]: 0.054 mg/L
